Target: HLA-DR1 (HLA-DRB1*01:01), soluble recombinant MHCII (human)
Test: fluorescence polarisation

HA(306-318), unlabeled influenza hemagglutinin peptide
IC50: 25 nM

— PMC4151172
